# According to the supplement of paper PMC10201428:
# ± gives the standard deviation of the averaged measurements.
# B1: library; a variant is named by its letters at N, in order (parent)
# chain: AATGTTGTTGATGCAACCATAAAGTGATATTTAATAATTATTTATAATCAGCAACTTAACCACAAAACAACCATATATTGATATNTCACAAAACAACCATAANTTGATATTTTTGTGAATCGAGTATTTCAGCAAAACTACTGCAGTAAGAA
# Tests used:
# [1] = variants of: B1; test: relative integration efficiency (T-LR orientation) vs wild-type transposon end (log2 (normalized fold change)); transposon end mutated: left end; higher = more efficient transposition; conditions: with VchCAST RNA-guided transposition machinery (E. coli BL21(DE3) host, lacZ target)
# Procedure, shortened: (§1)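 Each barcoded pool, 1549 left-end or 1849 right-end transposon variants in a pUC57 mini-transposon donor, went into E. coli BL21(DE3) with a T7-driven effector plasmid (CRISPR array, tniQ-cas8-cas7-cas6, tnsA-tnsB-tnsC). Plates contained 0.1 mM IPTG and were held at 37°C for 18 h. Input plasmids and genomic integration junctions were PCR-amplified and read by Illumina sequencing, with two biological output replicates and four reference barcodes. Relative integration efficiency is the fold change of output over input barcode abundance, normalised to the reference barcodes and log-transformed.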
# [2] = variants of: B1; test: relative integration efficiency (T-RL orientation) vs wild-type transposon end (log2 (normalized fold change)); transposon end mutated: left end; higher = more efficient transposition; conditions: with VchCAST RNA-guided transposition machinery (E. coli BL21(DE3) host, lacZ target)
# Procedure, shortened: as §1
Variant,relative integration efficiency (log2) [1],relative integration efficiency (log2) [2]
CG C63G A64T,0.148 ± 0.19,0.1041 ± 0.00033
CG T111C,-0.338 ± 0.58,-0.142 ± 0.1
CG A66C C68A A69C A70C C71A C72T A77T T78G T79A G80T A83C T86A C87A,-2.717 ± 0.015,-1.87 ± 0.77
CG C98G A99T T100A A101T,-1.8 ± 0.21,-2 ± 0.73
CG A16T C17G C18G A19T,-1.18 ± 1.3,-1.61 ± 0.74
CG A50C G51T C52A A53C,-0.0404 ± 0.5,-0.0487 ± 0.27
CC A102T,0.202 ± 0.2,-0.155 ± 0.12
CG A109T T110A T111A T112A,-1.2 ± 0.55,-1.22 ± 0.46
TA A22T G24T T31C A33C A70C T76A T84A C87A T104A T110A T113A,-0.378 ± 0.91,-0.553 ± 0.35
CG A66C,0.113 ± 0.11,-0.147 ± 0.047
CG A66G,-0.258 ± 0.65,0.0591 ± 0.047
CG G10T A11C,-2.92 ± 0.037,-1.58 ± 0.41
CG A11G,-0.67 ± 0.84,0.0387 ± 0.29
TA A16C G24T T30A A70C T76A T86G A102T T111C T113C,-0.48 ± 1.4,-0.134 ± 0.32
CG A70C C71A,-1.75 ± 1.2,-1.24 ± 0.54
CG A50G,-0.586 ± 0.44,-0.168 ± 0.005
CG A27C,-0.151 ± 0.13,-0.383 ± 0.25
CG T74G,-1.2 ± 1.2,-1.35 ± 0.79
CG A88G,-0.182 ± 0.22,-0.24 ± 0.098
CG A65C A66C A67C C68A,-1.01 ± 0.56,-0.474 ± 0.22
CG C17A,0.131 ± 0.49,0.0401 ± 0.23
CG C17G,0.155 ± 0.37,-0.344 ± 0.25
CG C17T,-0.0678 ± 0.41,-0.0235 ± 0.16
CG T35C,-0.112 ± 0.24,-0.0902 ± 0.18

Variant,relative integration efficiency (log2) [1],relative integration efficiency (log2) [2]
TA A22T G24T T31C A33C T76A T78G C87A T104A T110A T113A,-0.444 ± 0.45,-0.395 ± 0.24
TA G24A T30A T76A T78A T84A C87A T104G T113A,0.368 ± 0.38,-0.186 ± 0.3
TA A22T G24T T31C A33C T76A T78G C87A A102T T111C T113C,-0.662 ± 0.16,-0.645 ± 0.14
CG T45C,-0.0724 ± 0.056,-0.326 ± 0.093
CG A62G,0.446 ± 0.39,0.318 ± 0.17
CG A90C A91C A92C A93C,-0.132 ± 0.77,-0.283 ± 0.31
CG T20A A21T,-0.406 ± 0.45,-0.483 ± 0.31
CG G24C,-0.15 ± 0.17,-0.164 ± 0.021
CG G24T,0.871 ± 0.023,0.72 ± 0.19
TA A16C G24T T30A A70C T76A T84A C87A T104G T113A,0.223 ± 0.78,-0.109 ± 0.46
CG T41A T42A A44G A46G T48G A50G G51A C52G A53T C55A T56C T57A A59C,0.615 ± 1,-4.14 ± 1.1
CG C94A A95C A96C C97A,-1.9 ± 0.51,-1.87 ± 0.78
TG T76A T78A T84A C87A,0.281 ± 0.38,-0.028 ± 0.21
TA A23G G24T A33T T76A T78G C87A A96C T110A T113A,0.938 ± 0.63,0.884 ± 0.19
TA A23G G24T A33T T76A A77G C87T A96C T112G T113C,-0.402 ± 0.62,-0.2 ± 0.18
CG T28G T82G T108G,-3.23 ± 3.2,-2.28 ± 0.9
CG A53C A54C,0.297 ± 0.47,0.0858 ± 0.13
TA A23G G24T A33T T76A T78A T84A C87A A96C T110A T113A,0.43 ± 0.2,0.182 ± 0.35
CG A119T,0.893 ± 0.42,0.51 ± 0.29
CG A29C,-0.501 ± 0.28,-0.333 ± 0.36
AG T31G T32G A33C T86G C87A T111G T112G T113G,-1.26 ± 0.48,-1.07 ± 0.49
CG T32A A33T,0.105 ± 0.075,-0.145 ± 0.16
CG A34C T35G,0.139 ± 0.22,-0.109 ± 0.025
CG C98G A99T,-1.62 ± 0.4,-1.51 ± 0.56

Variant,relative integration efficiency (log2) [1],relative integration efficiency (log2) [2]
CG A69T,-0.153 ± 0.2,-0.525 ± 0.1
TG A22T G24T T31C A33C T76A T78A T84A C87A,-0.618 ± 0.17,-0.5 ± 0.36
CG T120A,0.11 ± 0.41,-0.141 ± 0.026
CG A37C,0.0561 ± 0.13,-0.222 ± 0.0095
CG A75G,-0.592 ± 0.42,-0.877 ± 0.4
TG A23G G24T A33T T76A T78G C87A,0.632 ± 0.11,0.16 ± 0.09
CG G124T T125G,-0.377 ± 0.42,-0.329 ± 0.048
TA T76A T78A T84A C87A A96C T112G T113C,-0.207 ± 0.74,0.00846 ± 0.17
CG A15T A69T A95T,-1.55 ± 0.76,-1.31 ± 0.47
CG T41A A44G A46T A50C A53T A54C C55A T56C T57A A59T C60T A62C,-2.59 ± 1.4,-3.65 ± 0.63
CG T43G A44C,0.129 ± 0.046,-0.0854 ± 0.05
TA A22T G24T T31C A33C T76A T78G C87A A96C T110A T113A,-0.606 ± 0.66,-0.329 ± 0.25
CG G24C T25A,-0.543 ± 0.54,-0.605 ± 0.37
CG A90T A91T,0.245 ± 0.23,-0.308 ± 0.26
CG A27T T28A A29T T30A,-0.918 ± 0.29,-0.753 ± 0.39
CG G115T T116G,0.0607 ± 0.61,0.243 ± 0.033
CG T48G C49A A50C G51T C52A A53C A54C C55A T56G T57G A58C,-3.04 ± 1.4,-2.79 ± 0.63
CG T25G,-0.618 ± 1,-0.455 ± 0.37
CG A65T A66T A67T C68G,-0.641 ± 0.54,-0.247 ± 0.37
CG A40C,-0.351 ± 0.61,-0.0674 ± 0.033
CG A40T,0.577 ± 0.12,0.279 ± 0.021
CG A40G,0.0123 ± 0.78,-0.273 ± 0.0094
CG A65C,0.328 ± 0.076,0.247 ± 0.051
TG A16C G24T T30A A70C T76A T84A C87A,-0.916 ± 0.88,-0.362 ± 0.11

Variant,relative integration efficiency (log2) [1],relative integration efficiency (log2) [2]
CG A67C C68A A69C A70C,-0.846 ± 1.2,-0.531 ± 0.42
CG A54T C55G,0.202 ± 0.2,-0.316 ± 0.29
CG T114A G115C,-0.272 ± 0.35,-0.342 ± 0.024
TA A16C G24T T32G A33C T76A T78G C87A A96C T112G T113C,-0.523 ± 0.65,-0.344 ± 0.18
AG T86G,0.305 ± 0.13,-0.271 ± 0.068
CG T79A G80C,-1.35 ± 1.1,-1.89 ± 0.83
CG A33C C87A T113G,0.0172 ± 0.12,-0.0603 ± 0.021
CG T110G T111G T112G T113G,-1.8 ± 1.2,-1.4 ± 0.63
CG A36C,-0.699 ± 0.7,-0.216 ± 0.15
CG A92C,-0.321 ± 0.19,-0.313 ± 0.19
CG C60A C61A,0.547 ± 0.41,0.353 ± 0.049
CG T42A T43A A44T T45A,0.262 ± 0.049,0.271 ± 0.16
CG A118C,0.243 ± 0.42,-0.0886 ± 0.026
TA G24A T30A T76A A77G C87T A102T T111C T113C,-0.112 ± 0.15,-0.456 ± 0.55
CG C52A A53C A54C C55A,0.277 ± 0.23,0.0708 ± 0.21
CG G24T T25G G26T A27C,-2.96 ± 1.7,-2.31 ± 0.84
AG T31G T111G,-0.732 ± 0.38,-0.99 ± 0.44
CG T20A A21T A22T A23T,-0.732 ± 0.16,-0.758 ± 0.34
TA A22T G24T T31C A33C T76A T78A T84A C87A A96C T110A T113A,-0.768 ± 1.2,-0.365 ± 0.32
CG A44T T45A,0.734 ± 0.13,0.214 ± 0.11
CG A33C A34C T35G A36C,-0.094 ± 0.018,-0.077 ± 0.049
TA A22T G24T T31C A33C A70C T76A T86G T104G T113A,-0.49 ± 0.73,-0.861 ± 0.53
CG A54T C55G T56A T57A,-0.43 ± 0.9,-0.861 ± 0.54
CG A54C C55A T56G T57G,-2.12 ± 1.2,-1.68 ± 0.8

Variant,relative integration efficiency (log2) [1],relative integration efficiency (log2) [2]
TA A16C G24T T32G A33C T76A T78A T84A C87A A96C T110A T113A,-0.572 ± 0.61,-0.189 ± 0.31
CA A102T T111C T113C,0.118 ± 0.59,-0.254 ± 0.41
CG C87A A88C C89A A90C,0.382 ± 0.34,0.292 ± 0.29
CG A70T C71G C72G A73T,-2.15 ± 0.26,-2.22 ± 0.88
CG T111G T112G,-0.977 ± 0.75,-0.622 ± 0.16
CG G24T T78G T104G,0.121 ± 0.35,-0.352 ± 0.37
CG A59C C60A,-0.233 ± 0.25,-0.0701 ± 0.0044
CG T74A A75T,-0.113 ± 0.66,-0.22 ± 0.27
CG C18A A19C T20G A21C,-2.8 ± 0.18,-3.18 ± 0.65
TG A22T G24T T31C A33C T76A A77G C87T,-0.123 ± 0.13,-0.61 ± 0.41
CG T3C,0.718 ± 0.1,0.297 ± 0.0045
CG T3G,0.394 ± 0.5,0.0915 ± 0.044
CG A16G,-0.395 ± 0.6,-0.205 ± 0.27
CG A16T,-0.444 ± 0.68,0.0359 ± 0.064
CG A90C A91C,-0.406 ± 0.87,-0.15 ± 0.34
CG T5G T6G G7T T8G,< -10,-6.89 ± 0.7
CG A46C,-0.118 ± 0.76,-0.291 ± 0.11
CG A95G,-1.23 ± 0.42,-0.845 ± 0.39
CG A95C,-0.179 ± 0.35,-0.318 ± 0.063
TG A22T G24T T31C A33C A70C T76A T84A C87A,-0.478 ± 0.83,-0.488 ± 0.46
